The results in this text go back to patent US20230321183A1.

Where only a bound is given, the exact number is not on record here.

For the assay, the target named is OTi TCR on OT-I mouse T cells. The assay is described as follows: cell-based or functional assay.

In turn, “FITC-conjugated tetramer H2Kb-SIINFEKL (from UniProt P01901 22-305) (peptide-MHC)” had a cytotoxicity of human primary CD8 anti-FITC CAR T cells on OTi cells of more than 50%.
